{"source": "patent US20170022287A1", "about": "(Chugai, published 2017)", "key": {"[1]": {"biological_target": "T1, mouse Fcγ receptor II extracellular domain with C-terminal His tag (mouse, UniProt P08101 30-210)", "T1 construct": "extracellular domain; also called mFcγRII; mFcgRII; not shown: His tag at the C terminus", "T1 sequence (looked up)": "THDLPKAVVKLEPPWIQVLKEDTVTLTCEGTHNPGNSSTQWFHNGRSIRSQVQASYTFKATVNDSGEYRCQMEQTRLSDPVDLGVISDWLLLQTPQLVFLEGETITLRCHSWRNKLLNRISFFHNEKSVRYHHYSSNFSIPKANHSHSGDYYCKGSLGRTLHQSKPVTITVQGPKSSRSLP", "assay": "SPR (Biacore) kinetics, antibody captured on Protein L, mFcγR as analyte, 1:1 Langmuir model"}, "[2]": {"biological_target": "T2, mouse Fcγ receptor III extracellular domain with C-terminal His tag (mouse, UniProt P08508 31-215)", "T2 construct": "extracellular domain; also called mFcγRIII; not shown: His tag at the C terminus", "T2 sequence (looked up)": "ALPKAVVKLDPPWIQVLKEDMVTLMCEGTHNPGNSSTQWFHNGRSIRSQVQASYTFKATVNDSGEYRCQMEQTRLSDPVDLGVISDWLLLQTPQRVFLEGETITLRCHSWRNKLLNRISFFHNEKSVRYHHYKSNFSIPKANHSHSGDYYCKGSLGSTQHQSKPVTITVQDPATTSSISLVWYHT", "assay": "SPR (Biacore) kinetics, antibody captured on Protein L, mFcγR as analyte, 1:1 Langmuir model"}, "[3]": {"biological_target": "T1, mouse Fcγ receptor II extracellular …", "assay": "SPR (Biacore); against naturally-occurring mIgG1 (H237-mIgG1/MRAL-k0)", "procedure": "(§1) The interaction between each modified antibody and the Fcγ receptor prepared as mentioned above was analyzed using Biacore T100 (GE Healthcare), Biacore T200 (GE Healthcare), Biacore A100, and Biacore 4000. The running buffer used was HBS-EP+(GE Healthcare) and the measurement temperature was set to 25° C. The chip used was: a Series S Sensor Chip CM5 (GE Healthcare) or Series S Sensor Chip CM4 (GE Healthcare) to which Protein L (ACTIGEN or BioVision) was immobilized by the amine coupling method. Antibodies of interest were captured onto these sensor chips, and mFcγR diluted with the running buffer was allowed to interact with them. The amount bound by the antibodies was measured and compared between the antibodies. However, since the amount of mFcγR bound depends on the amount of the captured antibody, the comparison was carried out on corrected values obtained by dividing the amount of bound mFcγR by the amount of each antibody captured. Furthermore, 10 mM glycine-HCl, pH 1.5 was reacted to wash out the captured antibody from the sensor chips, and the sensor chip was regenerated and used repeatedly. Kinetic analyses for calculating the KD values of each altered antibody to FcγR were performed according to the method below. […] From those values, the dissociation constant KD (mol/L) was determined."}, "[4]": {"biological_target": "T2, mouse Fcγ receptor III extracellular …", "assay": "SPR (Biacore); against naturally-occurring mIgG1 (H237-mIgG1/MRAL-k0)", "procedure": "as §1"}, "CRD1-3 [5]": {"biological_target": "T3, CRD1-3", "T3 construct": "also called fragmented human CD137-Fc fusion protein CRD1-3", "T3 sequence (chain, as listed by the source limits assumed)": "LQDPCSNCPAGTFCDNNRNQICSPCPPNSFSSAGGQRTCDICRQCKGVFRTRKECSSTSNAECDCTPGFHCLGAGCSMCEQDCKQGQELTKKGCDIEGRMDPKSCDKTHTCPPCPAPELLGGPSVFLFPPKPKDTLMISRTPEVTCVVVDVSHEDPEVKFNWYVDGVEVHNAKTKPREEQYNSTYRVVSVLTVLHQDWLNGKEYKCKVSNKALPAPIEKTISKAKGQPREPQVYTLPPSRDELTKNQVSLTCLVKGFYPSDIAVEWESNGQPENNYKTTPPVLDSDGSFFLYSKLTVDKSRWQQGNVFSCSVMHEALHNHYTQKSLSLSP", "assay": "ELISA, coated CD137-Fc protein 2 µg/mL, antibody 10 or 5 µg/mL; absorbance 620 nm divided by that of the uncoated well"}, "[6]": {"biological_target": "full-length human CD137-Fc fusion protein (human)", "sequence (chain, as listed by the source limits assumed)": "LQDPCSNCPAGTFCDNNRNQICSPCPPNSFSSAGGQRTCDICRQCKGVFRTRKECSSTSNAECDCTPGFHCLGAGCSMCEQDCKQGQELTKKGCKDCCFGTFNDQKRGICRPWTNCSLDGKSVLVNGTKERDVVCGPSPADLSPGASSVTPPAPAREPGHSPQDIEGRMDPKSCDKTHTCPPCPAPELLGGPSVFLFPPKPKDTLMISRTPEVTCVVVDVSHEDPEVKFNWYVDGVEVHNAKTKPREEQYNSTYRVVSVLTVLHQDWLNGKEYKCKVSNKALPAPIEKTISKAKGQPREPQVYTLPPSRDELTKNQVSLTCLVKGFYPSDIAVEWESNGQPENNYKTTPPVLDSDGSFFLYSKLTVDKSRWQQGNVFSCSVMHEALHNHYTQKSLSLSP", "assay": "ELISA, coated CD137-Fc protein 2 µg/mL, antibody 10 or 5 µg/mL; absorbance 620 nm divided by that of the uncoated well"}, "CRD3-4 [7]": {"biological_target": "T4, CRD3-4", "T4 construct": "also called fragmented human CD137-Fc fusion protein CRD3-4", "T4 sequence (chain, as listed by the source limits assumed)": "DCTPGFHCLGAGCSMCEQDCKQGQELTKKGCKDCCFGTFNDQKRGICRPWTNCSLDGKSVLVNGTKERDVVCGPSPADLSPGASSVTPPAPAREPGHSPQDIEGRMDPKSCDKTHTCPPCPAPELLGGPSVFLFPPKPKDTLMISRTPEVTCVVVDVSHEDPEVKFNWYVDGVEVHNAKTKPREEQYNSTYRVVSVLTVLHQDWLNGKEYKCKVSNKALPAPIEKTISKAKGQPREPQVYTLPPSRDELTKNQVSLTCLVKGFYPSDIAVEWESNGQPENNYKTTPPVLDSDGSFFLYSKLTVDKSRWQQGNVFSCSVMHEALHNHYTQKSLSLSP", "assay": "ELISA, coated CD137-Fc protein 2 µg/mL, antibody 10 or 5 µg/mL; absorbance 620 nm divided by that of the uncoated well"}, "CRD1-2 [8]": {"biological_target": "T5, CRD1-2", "T5 construct": "also called fragmented human CD137-Fc fusion protein CRD1-2", "T5 sequence (chain, as listed by the source limits assumed)": "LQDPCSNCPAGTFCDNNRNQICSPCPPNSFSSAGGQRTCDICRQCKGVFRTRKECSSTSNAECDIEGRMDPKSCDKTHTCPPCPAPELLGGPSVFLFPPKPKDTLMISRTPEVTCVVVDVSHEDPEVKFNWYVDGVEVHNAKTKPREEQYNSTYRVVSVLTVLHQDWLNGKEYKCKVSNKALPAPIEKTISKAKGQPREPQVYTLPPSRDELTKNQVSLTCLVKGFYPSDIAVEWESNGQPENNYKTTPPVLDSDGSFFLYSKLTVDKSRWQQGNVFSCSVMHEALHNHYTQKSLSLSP", "assay": "ELISA, coated CD137-Fc protein 2 µg/mL, antibody 10 or 5 µg/mL; absorbance 620 nm divided by that of the uncoated well"}, "CRD2-4 [9]": {"biological_target": "T6, CRD2-4", "T6 construct": "also called fragmented human CD137-Fc fusion protein CRD2-4", "T6 sequence (chain, as listed by the source limits assumed)": "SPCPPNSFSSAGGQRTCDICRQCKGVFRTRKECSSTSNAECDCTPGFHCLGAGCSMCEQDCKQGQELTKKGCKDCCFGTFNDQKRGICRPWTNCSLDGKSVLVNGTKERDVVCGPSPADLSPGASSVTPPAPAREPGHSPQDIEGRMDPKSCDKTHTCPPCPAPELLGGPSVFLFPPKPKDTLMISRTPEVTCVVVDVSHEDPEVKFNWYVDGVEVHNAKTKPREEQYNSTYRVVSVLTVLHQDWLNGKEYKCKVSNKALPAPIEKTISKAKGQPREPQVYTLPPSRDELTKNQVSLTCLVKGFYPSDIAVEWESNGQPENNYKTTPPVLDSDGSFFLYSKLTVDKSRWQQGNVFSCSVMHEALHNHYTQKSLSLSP", "assay": "ELISA, coated CD137-Fc protein 2 µg/mL, antibody 10 or 5 µg/mL; absorbance 620 nm divided by that of the uncoated well"}, "CRD2-3 [10]": {"biological_target": "T7, CRD2-3", "T7 construct": "also called fragmented human CD137-Fc fusion protein CRD2-3", "T7 sequence (chain, as listed by the source limits assumed)": "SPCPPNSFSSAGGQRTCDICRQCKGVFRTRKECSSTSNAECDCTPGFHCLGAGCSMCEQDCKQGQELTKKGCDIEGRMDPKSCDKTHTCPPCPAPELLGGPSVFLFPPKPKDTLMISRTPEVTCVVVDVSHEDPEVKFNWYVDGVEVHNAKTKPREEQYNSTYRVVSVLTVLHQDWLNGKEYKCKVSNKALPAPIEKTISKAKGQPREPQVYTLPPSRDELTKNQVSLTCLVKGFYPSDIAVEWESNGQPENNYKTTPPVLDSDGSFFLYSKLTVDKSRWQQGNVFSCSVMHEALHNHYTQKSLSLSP", "assay": "ELISA, coated CD137-Fc protein 2 µg/mL, antibody 10 or 5 µg/mL; absorbance 620 nm divided by that of the uncoated well"}, "CRD1-3 [11]": {"biological_target": "T3, CRD1-3", "assay": "ELISA, coated CD137-Fc protein 2 µg/mL, antibody 10 or 5 µg/mL, absorbance 620 nm; Non (uncoated well) 0.101"}, "[12]": {"biological_target": "full-length human CD137-Fc fusion protein (human)", "assay": "ELISA, coated CD137-Fc protein 2 µg/mL, antibody 10 or 5 µg/mL, absorbance 620 nm; Non (uncoated well) 0.101"}, "CRD3-4 [13]": {"biological_target": "T4, CRD3-4", "assay": "ELISA, coated CD137-Fc protein 2 µg/mL, antibody 10 or 5 µg/mL, absorbance 620 nm; Non (uncoated well) 0.101"}, "CRD1-2 [14]": {"biological_target": "T5, CRD1-2", "assay": "ELISA, coated CD137-Fc protein 2 µg/mL, antibody 10 or 5 µg/mL, absorbance 620 nm; Non (uncoated well) 0.101"}, "CRD2-4 [15]": {"biological_target": "T6, CRD2-4", "assay": "ELISA, coated CD137-Fc protein 2 µg/mL, antibody 10 or 5 µg/mL, absorbance 620 nm; Non (uncoated well) 0.101"}, "CRD2-3 [16]": {"biological_target": "T7, CRD2-3", "assay": "ELISA, coated CD137-Fc protein 2 µg/mL, antibody 10 or 5 µg/mL, absorbance 620 nm; Non (uncoated well) 0.101"}, "CRD1-3 [17]": {"biological_target": "T3, CRD1-3", "assay": "ELISA, coated CD137-Fc protein 2 µg/mL, antibody 10 or 5 µg/mL, absorbance 620 nm; Non (uncoated well) 0.049"}, "CRD1 [18]": {"biological_target": "T8, CRD1", "T8 construct": "also called fragmented human CD137-Fc fusion protein CRD1", "T8 sequence (chain, as listed by the source limits assumed)": "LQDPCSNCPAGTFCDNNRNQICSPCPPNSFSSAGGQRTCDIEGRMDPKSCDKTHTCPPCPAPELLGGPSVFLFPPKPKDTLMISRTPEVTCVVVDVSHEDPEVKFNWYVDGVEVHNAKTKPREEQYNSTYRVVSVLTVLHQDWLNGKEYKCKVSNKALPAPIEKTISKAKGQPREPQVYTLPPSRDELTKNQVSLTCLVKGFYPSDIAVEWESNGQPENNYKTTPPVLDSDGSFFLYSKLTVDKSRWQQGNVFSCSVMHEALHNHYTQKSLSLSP", "assay": "ELISA, coated CD137-Fc protein 2 µg/mL, antibody 10 or 5 µg/mL, absorbance 620 nm; Non (uncoated well) 0.049"}, "[19]": {"biological_target": "full-length human CD137-Fc fusion protein (human)", "assay": "ELISA, coated CD137-Fc protein 2 µg/mL, antibody 10 or 5 µg/mL, absorbance 620 nm; Non (uncoated well) 0.049"}, "CRD3-4 [20]": {"biological_target": "T4, CRD3-4", "assay": "ELISA, coated CD137-Fc protein 2 µg/mL, antibody 10 or 5 µg/mL, absorbance 620 nm; Non (uncoated well) 0.049"}, "CRD1-2 [21]": {"biological_target": "T5, CRD1-2", "assay": "ELISA, coated CD137-Fc protein 2 µg/mL, antibody 10 or 5 µg/mL, absorbance 620 nm; Non (uncoated well) 0.049"}, "CRD2-4 [22]": {"biological_target": "T6, CRD2-4", "assay": "ELISA, coated CD137-Fc protein 2 µg/mL, antibody 10 or 5 µg/mL, absorbance 620 nm; Non (uncoated well) 0.049"}, "CRD2-3 [23]": {"biological_target": "T7, CRD2-3", "assay": "ELISA, coated CD137-Fc protein 2 µg/mL, antibody 10 or 5 µg/mL, absorbance 620 nm; Non (uncoated well) 0.049"}, "CRD1 [24]": {"biological_target": "T8, CRD1", "assay": "ELISA, coated CD137-Fc protein 2 µg/mL, antibody 10 or 5 µg/mL; absorbance 620 nm divided by that of the uncoated well"}}, "data": [{"binder": "H237-MB492/MRAL-k0 (antibody, mouse IgG1, kappa, Mouse IgG1 constant region variant MB492 (T230E, V231P, P232N, S238E, S239D, N324D, as described for 1D8VH-MB492); copies: 2 + 2) heavy: QVQLQESGPGLVKPSETLSLTCAVSGHSISHDHAWSWVRQPPGEGLEWIGFISYSGITNYNPSLQGRVTISRDNSKNTLYLQMNSLRAEDTAVYYCARSLARTTAMDYWGEGTLVTVSSAKTTPPSVYPLAPGSAAQTNSMVTLGCLVKGYFPEPVTVTWNSGSLSSGVHTFPAVLQSDLYTLSSSVTVPSSTWPSETVTCNVAHPASSTKVDKKIVPRDCGCKPCICEPNEVEDVFIFPPKPKDVLTITLTPKVTCVVVDISKDDPEVQFSWFVDDVEVHTAQTQPREEQFNSTFRSVSELPIMHQDWLNGKEFKCRVDSAAFPAPIEKTISKTKGRPKAPQVYTIPPPKEQMAKDKVSLTCMITDFFPEDITVEWQWNGQPAENYKNTQPIMDTDGSYFVYSKLNVQKSNWEAGNTFTCSVLHEGLHNHHTEKSLSHSPGK light: not shown", "values": [{"measurement": "Kd", "setting": "[1]", "value": 0.338, "unit": "nM"}, {"measurement": "Kd", "setting": "[2]", "value": 25.8, "unit": "nM"}, {"measurement": "Relative binding activity", "setting": "[3]", "value": "622 fold (mIgG1 = 1)"}, {"measurement": "Relative binding activity", "setting": "[4]", "value": "10.9 fold (mIgG1 = 1)"}]}, {"binder": "R10 (antibody, V domains shown, Synthetic library clone; Fab on phage in the phage ELISA) VH: not shown VL: DIQMTQSPSSLSASVGDRVTITCRASQSISSYLNWYQQKPGKAPKLLIYAASSLQSGVPSRFSGSGSGTDFTLTISSLQPEDFATYYCQQFDNFPLTFGGGTKVEIK", "values": [{"measurement": "Ratio with respect to Non-Coating", "setting": "CRD1-3 [5]", "value": 24.4}, {"measurement": "Ratio with respect to Non-Coating", "setting": "[6]", "value": 25.6}, {"measurement": "Ratio with respect to Non-Coating", "setting": "CRD3-4 [7]", "value": 27.2}, {"measurement": "Ratio with respect to Non-Coating", "setting": "CRD1-2 [8]", "value": 2.2}, {"measurement": "Ratio with respect to Non-Coating", "setting": "CRD2-4 [9]", "value": 24.3}, {"measurement": "Ratio with respect to Non-Coating", "setting": "CRD2-3 [10]", "value": 26.1}, {"measurement": "ELISA color development level", "setting": "CRD1-3 [11]", "value": 2.46}, {"measurement": "ELISA color development level", "setting": "[12]", "value": 2.59}, {"measurement": "ELISA color development level", "setting": "CRD3-4 [13]", "value": 2.75}, {"measurement": "ELISA color development level", "setting": "CRD1-2 [14]", "value": 0.222}, {"measurement": "ELISA color development level", "setting": "CRD2-4 [15]", "value": 2.46}, {"measurement": "ELISA color development level", "setting": "CRD2-3 [16]", "value": 2.64}]}, {"binder": "B (antibody, human IgG1, kappa, V domains shown, also called Control B) VH: QVQLQQWGAGLLKPSETLSLTCAVYGGSFSGYYWSWIRQSPEKGLEWIGEINHGGYVTYNPSLESRVTISVDTSKNQFSLKLSSVTAADTAVYYCARDYGPGNYDWYFDLWGRGTLVTVSS VL: EIVLTQSPATLSLSPGERATLSCRASQSVSSYLAWYQQKPGQAPRLLIYDASNRATGIPARFSGSGSGTDFTLTISSLEPEDFAVYYCQQRSNWPPALTFGGGTKVEIKR", "values": [{"measurement": "ELISA color development level", "setting": "CRD1-3 [17]", "value": 2.33}, {"measurement": "ELISA color development level", "setting": "CRD1 [18]", "value": 1.75}, {"measurement": "ELISA color development level", "setting": "[19]", "value": 2.67}, {"measurement": "ELISA color development level", "setting": "CRD3-4 [20]", "value": 0.074}, {"measurement": "ELISA color development level", "setting": "CRD1-2 [21]", "value": 2.58}, {"measurement": "ELISA color development level", "setting": "CRD2-4 [22]", "value": 0.097}, {"measurement": "ELISA color development level", "setting": "CRD2-3 [23]", "value": 0.089}, {"measurement": "Ratio with respect to Non-Coating", "setting": "CRD1-3 [5]", "value": 47.5}, {"measurement": "Ratio with respect to Non-Coating", "setting": "CRD1 [24]", "value": 35.7}, {"measurement": "Ratio with respect to Non-Coating", "setting": "[6]", "value": 54.6}, {"measurement": "Ratio with respect to Non-Coating", "setting": "CRD3-4 [7]", "value": 1.5}, {"measurement": "Ratio with respect to Non-Coating", "setting": "CRD1-2 [8]", "value": 52.7}, {"measurement": "Ratio with respect to Non-Coating", "setting": "CRD2-4 [9]", "value": 2}, {"measurement": "Ratio with respect to Non-Coating", "setting": "CRD2-3 [10]", "value": 1.8}]}]}
